The record followed here is patent US20050153377A1 (ORIENTAL YEAST CO., LTD., priority 1999, published 2005).

One assay concerns the target T1, CRP (Homo sapiens, UniProt P02741).
T1 construct: purchased Oriental Yeast Co., Ltd. (Japan); host or cells: Escherichia coli
T1 sequence (P02741 19-224): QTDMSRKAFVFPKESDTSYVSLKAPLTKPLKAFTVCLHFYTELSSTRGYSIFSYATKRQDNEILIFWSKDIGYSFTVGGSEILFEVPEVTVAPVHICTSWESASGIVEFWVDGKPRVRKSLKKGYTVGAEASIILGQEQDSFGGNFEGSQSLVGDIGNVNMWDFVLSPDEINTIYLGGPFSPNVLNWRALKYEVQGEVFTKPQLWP
Put plainly: CRP activity to bind to immobilized PC-BSA, PC-antibody method (C). The class given is binding. The following applies: Eu3+-labeled anti-CRP antibody, FIG. 6. How it is done:
Because it was difficult to immobilize PC-BSA without modification of the microtiter plate, PC-BSA was immobilized on the wells of a microtiter plate by using the PVLA method [Suzuki, N., et al., (1997) Anal. Biochem. 247, 4-12-416]. PVLA (2 mg) was suspended in 1 ml of water by ultrasonication; the resulting PVLA suspension of 40 μl was added to each well, for overnight incubation at 4° C. 1 mM NaIO4 solution was added in 50 μl-portions to each well, and the plate was incubated in darkness at ambient temperature for one hour. After the plate was washed, the PC-BSA solution (100 ng protein in 40 μl of water) was added to each well, followed by mixing with 5 μl of 2% (v/v) borane-pyridine complex, for incubation at 37° C. for 2 hours. The wells were blocked through incubation with 1M glycylglycine (40 μl) at 37° C. for 4 hours, and then followed by incubation with 200 μl of TBS containing 2% (w/v) BSA at 4° C. overnight. After the added solutions were removed at the individual stages of the following method, the wells were washed six times with 200 μl of TBS.
So as to immobilize PC58- or PC7-BSA solution (40 μl containing […] and PC of about 120 pmol or 15 pmol) in water, the solution was left to stand in the PVLA-coated well. After the wells were coated with PC-BSA and blocked with BSA, they were then washed six times with TBS (200 μl). […]

In assay [1] the target is PC58-BSA (conjugate with 58 phosphorylcholine molecules on average bound per one bovine serum albumin molecule) (bovine) (UniProt P02769). Kind of assay: quantitative precipitation at saturation, 20 µg PC58-BSA with 50 µg CRP.
Sequence of PC58-BSA (conjugate with 58 phosphorylcholine molecules on average bound per one bovine serum albumin molecule) (bovine) (P02769 25-607 limits assumed, form in doubt): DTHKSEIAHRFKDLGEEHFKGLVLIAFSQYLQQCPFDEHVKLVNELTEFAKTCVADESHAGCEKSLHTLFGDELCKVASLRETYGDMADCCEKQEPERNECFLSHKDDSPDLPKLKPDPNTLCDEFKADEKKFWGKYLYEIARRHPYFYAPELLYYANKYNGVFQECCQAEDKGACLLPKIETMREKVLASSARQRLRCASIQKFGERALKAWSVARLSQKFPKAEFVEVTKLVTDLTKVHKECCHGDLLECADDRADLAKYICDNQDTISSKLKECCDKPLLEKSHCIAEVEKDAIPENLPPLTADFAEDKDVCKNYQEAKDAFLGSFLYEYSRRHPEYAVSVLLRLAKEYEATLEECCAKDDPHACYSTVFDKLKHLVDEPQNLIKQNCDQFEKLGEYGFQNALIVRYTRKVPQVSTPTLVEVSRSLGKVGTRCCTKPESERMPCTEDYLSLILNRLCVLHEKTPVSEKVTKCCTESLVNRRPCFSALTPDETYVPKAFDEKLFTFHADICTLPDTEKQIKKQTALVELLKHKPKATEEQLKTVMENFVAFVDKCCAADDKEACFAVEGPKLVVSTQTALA

With “PC7-BSA: PC conjugate of bovine serum albumin (BSA) produced by the previously reported method”, in the assay with CRP, the “anti-CRP antibody (IgG) bound per PC-BSA-coated well” value was found to be 2.2 fmol per well.

On to “PC58-BSA: conjugate where 58 PC molecules on average are bound per one BSA molecule”, for which the “anti-CRP antibody (IgG) bound per PC-BSA-coated well” value in the assay with CRP is recorded as 5.6 fmol per well.

B1: Recombinant human C-reactive protein (rhCRP) expressed in Escherichia coli (protein, UniProt P02741 19-224, looked up)
chain: QTDMSRKAFVFPKESDTSYVSLKAPLTKPLKAFTVCLHFYTELSSTRGYSIFSYATKRQDNEILIFWSKDIGYSFTVGGSEILFEVPEVTVAPVHICTSWESASGIVEFWVDGKPRVRKSLKKGYTVGAEASIILGQEQDSFGGNFEGSQSLVGDIGNVNMWDFVLSPDEINTIYLGGPFSPNVLNWRALKYEVQGEVFTKPQLWP
On to B1, for which, in assay [1], the amount of CRP in the precipitate is 0.37 nmol, the amount of PC58-BSA in the precipitate was 0.17 nmol and the ratio PC58-BSA:CRP in the precipitate (mol CRP (pentamer) per mol PC58-BSA) was determined as 2.2.
